Source: patent US10434074B2, “Peptide and small molecule agonists of EPHA and uses thereof” (CASE WESTERN RESERVE UNIVERSITY, priority 2004, dated 2019)

Key:
Akt = Akt activities in PC-3 cells; assay type: cell-based, human
[1] = test system: H125, H1975 and SKMES cells; assay: ERK and AKT phosphorylation in non-small cell lung cancer cells; assay type: cell-based, human; conditions: 2 ìg/ml, 10 and 30 minutes
Text: (§1) FIGS. 47(A-C) illustrate A) Expression of β-gal in EphA2 KO mouse lung. Frozen sections were fixed and stained with X-gal and followed by counterstaining with nuclear Fast-Red. B) Expression of EphA2 in the lung from wild-type mice. Lung frozen sections were stained with goat polyclonal antibodies that recognize the ectodomain of EphA2 followed by detection with donkey anti-goat IgG conjugated with FITC. C) EphA kinase activation by ephrin-A1 in H125, H1975 and SKMES human non-small cell lung cancer cells. Cells were stimulated with 2 ìg/ml of ephrin-A1-Fc for 10 and 30 minutes.
as §1, with “FIG. 47A illustrates the expression” for “FIGS. 47(A-C) illustrate A) Expression”, “knockout” for “KO”, “FIG. 47B illustrates expression” for “B) Expression”, “FIG. 47C illustrates” for “C)”

EphA1 = target: T1, EphA1 (Homo sapiens, UniProt P21709); assay: Proliferation of DU145 cells expressing EphA1; assay type: cell-based; conditions: 10% serum 7 days or 0.5% serum 18 days
T1 construct: expressed in transfected cells; host or cells: DU145 cells, retroviral infection
T1 sequence (P21709 26-976): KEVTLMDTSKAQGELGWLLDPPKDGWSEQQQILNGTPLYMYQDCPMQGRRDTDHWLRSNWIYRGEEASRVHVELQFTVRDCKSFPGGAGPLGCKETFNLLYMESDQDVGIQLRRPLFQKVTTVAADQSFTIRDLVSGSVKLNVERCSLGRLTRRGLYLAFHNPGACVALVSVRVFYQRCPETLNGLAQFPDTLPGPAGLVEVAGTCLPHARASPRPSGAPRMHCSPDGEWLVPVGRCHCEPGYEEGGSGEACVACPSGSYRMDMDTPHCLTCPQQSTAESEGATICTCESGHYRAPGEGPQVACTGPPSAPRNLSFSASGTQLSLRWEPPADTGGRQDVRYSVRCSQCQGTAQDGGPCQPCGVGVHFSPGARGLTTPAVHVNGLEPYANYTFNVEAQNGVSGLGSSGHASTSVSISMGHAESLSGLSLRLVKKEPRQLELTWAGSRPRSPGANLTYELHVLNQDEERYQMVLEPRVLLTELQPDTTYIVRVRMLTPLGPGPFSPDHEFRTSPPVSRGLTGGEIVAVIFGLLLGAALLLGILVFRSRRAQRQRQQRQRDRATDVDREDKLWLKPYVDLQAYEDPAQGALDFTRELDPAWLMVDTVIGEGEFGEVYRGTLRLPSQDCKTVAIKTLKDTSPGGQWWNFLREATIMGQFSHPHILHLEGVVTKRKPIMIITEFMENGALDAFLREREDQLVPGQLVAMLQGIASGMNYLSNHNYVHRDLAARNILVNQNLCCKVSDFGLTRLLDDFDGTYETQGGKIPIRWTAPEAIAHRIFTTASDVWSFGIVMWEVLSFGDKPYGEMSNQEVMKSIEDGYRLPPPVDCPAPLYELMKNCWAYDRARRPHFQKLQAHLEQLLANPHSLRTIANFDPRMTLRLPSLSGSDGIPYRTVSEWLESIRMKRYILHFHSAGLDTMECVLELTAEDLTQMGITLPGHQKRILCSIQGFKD
Description: FIGS. 49(A-B) illustrate expression of EphA1 in DU145 cells infected with vector control (control) and EphA1 expression retrovirus. FIG. 49B illustrates that about 2,000 cells were plated on 12-well plates in the regular culture medium (10% serum) and low serum medium (0.5%). Cell were cultured for 7 days (10% serum) or 18 days (0.5%). FIG. 49B illustrates that proliferation of prostatic epithelial cells expressing EphA1 and activated with Ephrin-A1 is inhibited.
DU145 human prostatic epithelial cells were infected with retrovirus expressing EphA1. FIG. 49A illustrates expression of EphA1 in DU145 cells infected with vector control (control) and EphA1 expression retrovirus. FIG. 49B illustrates that about 2,000 cells were plated on 12-well plates in the regular culture medium (10% serum) and low serum medium (0.5%). Cell were cultured for 7 days (10% serum) or 18 days (0.5%). FIG. 49B illustrates that proliferation of prostatic epithelial cells expressing EphA1 and activated with Ephrin-A1 is inhibited.

B1: ephrin-A1-Fc: ephrin-A1 dimerized by fusion to the heavy chain of human IgG1 (protein)
chain: DRHTVFWNSSNPKFRNEDYTIHVQLNDYVDIICPHYEDHSVADAAMEQYILYLVEHEEYQLCQPQSKDQVRWQCNRPSAKHGPEKLSEKFQRFTPFTLGKEFKEGHSYYYISKPIHQHEDRCLRLKVTVSGKITHSPQAHDNPQEKRLAADDPEVRVLHSIGHS
modifications: left off: a dimerising Fc or GST
notes: ephrin-A1 dimerized by fusion to the heavy chain of human IgG1
With B1 the Akt activities (Akt) was “inhibition of Akt activities”, the “ERK and AKT phosphorylation” value [1] was “inhibits ERK and AKT phosphorylation” and the “proliferation of cells expressing EphA1” value (EphA1) was “is inhibited”.
